Results: PMC8041770 (2021)

Target: recombinant human LIF, histidine-tagged (hLIF-His) (human, UniProt P15018 23-202)
Test: FACS

Chain of recombinant human LIF, histidine-tagged (hLIF-His) (P15018 23-202): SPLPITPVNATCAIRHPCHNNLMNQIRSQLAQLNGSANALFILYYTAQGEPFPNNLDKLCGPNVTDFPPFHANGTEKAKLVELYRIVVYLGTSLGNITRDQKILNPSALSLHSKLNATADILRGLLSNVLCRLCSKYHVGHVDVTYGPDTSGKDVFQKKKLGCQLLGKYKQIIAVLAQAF

Kd: 14 pM
B1: yeast-displayed eLIFR CBM I–Ig-like–CBM II domains (designed binder)
chain: QKKGAPHDLKCVTNNLQVWNCSWKAPSGTGRGTDYEVCIENRSRSCYQLEKTSIKIPALSHGDYEITINSLHDFGSSTSKFTLNEQNVSLIPDTPEILNLSADFSTSTLYLKWNDRGSVFPHRSNVIWEIKVLRKESMELVKLVTHNTTLNGKDTLHHWSWASDMPLECAIHFVEIRCYIDNLHFSGLEEWSDWSPVKNISWIPDSQTKVFPQDKVVPVGSDITFCCVSQEKVLSALIGRTNCPLIHLDGENVAIKVRNVSASASSGTNVVFITEDDIFGTVIFAGYPPDTPQQLNCETHDLKEIICSWNPGRVTALVGPRATSYTLVESFSGKYVRLKRAEAPTNESYQLLFQMLPNQEIYNFTLNAHNPLGRSQSTILVNITEKVYPHTPTSFKVKDINSTAVKLSWHLPGNFAKINFLCEIEIKKSNSVQEQRNVTIKGVENSSYLVALDKLNPYTLYTFRIRCSTETFWKWSKWSNKKQHLTTEAS
